This note sets out measurements from CN101671397A (UNIV SICHUAN, dated 2010).

In test [1] the target is T1, epidermal growth factor receptor (EGFR) on human lung cancer cell line A549 (human, UniProt P00533 25-1210).
T1 construct: whole, on cells; also called 表皮生长因子受体
The test is described as follows: immunofluorescence and flow cytometry on A549 cells (summary). Background: A flow cytometer gives signals particle by particle.

In test [2] the target is T1, epidermal growth factor receptor (EGFR) …. The test is described as follows: flow cytometry on cells (A549), detected with rabbit antiserum and goat anti-rabbit IgG-FITC.

B1: SCFV(Anti-EGFR)/Gelonin recombinant immunotoxin (抗EGFR单链抗体融合Gelonin重组免疫毒素) (other)
chain: EVQLQQSGAELMKPGASVKISCKATGYTFSSYWIEWVKQRPGHGLEWIGEILPGSKKTNYNEKFKGKATFTADTSSNTAYMQFSSLTSEDSAVYYCARYYYRNDDYGMDYWGQGTTVTVSSGGGGSGGGGSGGGGSDIVMSQSPKSMSMSVGERVTLTCKASENVVTYVSWYQQKPEQSPKLLIYGASNRYTGVPDRFTGSGSATDFTLTISSVQAEDLADYHCGQGCSYPYTFGGGTKLEIKGSGGGGSGGGGSGLDTVSFSTKGATYITYVNFLNELRVKLKPEGNSHGIPLLRKKCDDPGKCFVLVALSNDNGQLAEIAIDVTSVYVVGYQVRNRSYFFKDAPDAAYEGLFKNTIKTRLHFGGSYPSLEGEKAYRETTDLGIEPLRIGIKKLDENAIDNYKPTEIASSLLVVIQMVSEAARFTFIENQIRNNFQQRIRPANNTISLENKWGKLSFQIRTSGANGMFSEAVELERANGKKYYVTAVDQVKPKIALLKFVDKDPK
notes: also called ScFv(Anti-EGFR)/rGel
For the molecule B1, the binding result in test [1] is given as “binds”.

B2: recombinant Gelonin (重组Gelonin) (enzyme)
chain: GLDTVSFSTKGATYITYVNFLNELRVKLKPEGNSHGIPLLRKKCDDPGKCFVLVALSNDNGQLAEIAIDVTSVYVVGYQVRNRSYFFKDAPDAAYEGLFKNTIKTRLHFGGSYPSLEGEKAYRETTDLGIEPLRIGIKKLDENAIDNYKPTEIASSLLVVIQMVSEAARFTFIENQIRNNFQQRIRPANNTISLENKWGKLSFQIRTSGANGMFSEAVELERANGKKYYVTAVDQVKPKIALLKFVDKDPK
notes: also called rGel
In the case of B2, the binding result in test [2] is on record as “no binding (tested: 100umol/L)”.
